Experimental data published in US11767359B2, “C3-binding agents and methods of use thereof” (NGM Biopharmaceuticals, Inc., priority 2018, dated 2023).

Legend:
[1] = Solubility of Hz38G10 dsscFv by micro-concentration; type: physicochemical; conditions: 10 mM sodium phosphate, 40 mM sodium chloride, 0.03% polysorbate 20, 5% sucrose, pH 6.2
Procedure: The purified antibodies were dialyzed into buffer consisting of 10 mM sodium phosphate, 40 mM sodium chloride, 0.03% polysorbate 20, and 5% sucrose, pH 6.2. The solution was micro-concentrated using 10,000 Da NMWCO spin concentrator at 3,000×g at room temperature. Protein concentration was measured on an Agilent Cary 60 UV-VIS Solo VPE spectrophotometer.

C3c = C3c (Homo sapiens, UniProt P01024); assay: Binding profile: binding to C3c; conditions: relative to the binding of the negative control mIgG2 antibody
Sequence of C3c (P01024 23-667 limits assumed): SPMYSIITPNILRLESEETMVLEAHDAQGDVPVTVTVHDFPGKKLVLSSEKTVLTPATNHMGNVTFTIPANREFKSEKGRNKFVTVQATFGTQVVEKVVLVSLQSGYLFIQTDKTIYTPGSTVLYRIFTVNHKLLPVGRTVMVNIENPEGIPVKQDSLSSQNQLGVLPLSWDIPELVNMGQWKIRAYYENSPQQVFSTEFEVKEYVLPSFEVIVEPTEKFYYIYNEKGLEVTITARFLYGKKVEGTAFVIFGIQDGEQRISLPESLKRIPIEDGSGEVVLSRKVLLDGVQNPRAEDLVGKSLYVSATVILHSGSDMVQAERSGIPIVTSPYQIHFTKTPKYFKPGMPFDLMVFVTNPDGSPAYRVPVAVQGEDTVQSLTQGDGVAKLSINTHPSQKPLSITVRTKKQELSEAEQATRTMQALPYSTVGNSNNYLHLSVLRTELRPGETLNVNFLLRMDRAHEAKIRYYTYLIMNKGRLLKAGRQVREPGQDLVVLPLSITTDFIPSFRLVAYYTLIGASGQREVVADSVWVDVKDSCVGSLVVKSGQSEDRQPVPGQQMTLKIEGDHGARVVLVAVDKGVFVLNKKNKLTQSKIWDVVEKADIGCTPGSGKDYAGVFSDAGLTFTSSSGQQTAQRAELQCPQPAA
Sequence of C3c (P01024 749-954 limits assumed): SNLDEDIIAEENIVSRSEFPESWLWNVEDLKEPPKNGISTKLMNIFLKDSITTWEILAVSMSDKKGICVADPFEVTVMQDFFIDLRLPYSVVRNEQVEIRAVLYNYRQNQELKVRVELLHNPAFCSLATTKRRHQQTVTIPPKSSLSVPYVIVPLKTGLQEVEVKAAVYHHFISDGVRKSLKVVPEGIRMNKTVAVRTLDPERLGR
Sequence of C3c (P01024 1321-1663 limits assumed): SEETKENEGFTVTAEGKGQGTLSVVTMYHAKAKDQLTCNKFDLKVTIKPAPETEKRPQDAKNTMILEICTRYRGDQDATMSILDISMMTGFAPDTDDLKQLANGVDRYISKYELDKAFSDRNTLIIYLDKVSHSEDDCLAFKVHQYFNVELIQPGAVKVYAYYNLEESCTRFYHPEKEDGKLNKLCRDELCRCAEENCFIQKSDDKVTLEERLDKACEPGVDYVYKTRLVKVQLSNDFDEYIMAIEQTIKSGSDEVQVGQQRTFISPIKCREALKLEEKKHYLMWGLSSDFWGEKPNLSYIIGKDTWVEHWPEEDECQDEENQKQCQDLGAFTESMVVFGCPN
Source text: (§1) The anti-C3 antibodies described herein were characterized for their ability to bind a number of other components of the complement cascade. Antibodies were screened for binding to C3, C3a, C3b, C3c, C3d, iC3b, and Factor Bb. All the anti-C3 antibodies included in Table 13 were able to block complement activation. The data are relative to the binding of the negative control mIgG2 antibody.

iC3b = iC3b (Homo sapiens, UniProt P01024); assay: Binding profile: binding to iC3b; conditions: relative to the binding of the negative control mIgG2 antibody
Sequence of iC3b (P01024 23-667 limits assumed): as the sequence (P01024 23-667 limits assumed) above
Sequence of iC3b (P01024 749-1303 limits assumed): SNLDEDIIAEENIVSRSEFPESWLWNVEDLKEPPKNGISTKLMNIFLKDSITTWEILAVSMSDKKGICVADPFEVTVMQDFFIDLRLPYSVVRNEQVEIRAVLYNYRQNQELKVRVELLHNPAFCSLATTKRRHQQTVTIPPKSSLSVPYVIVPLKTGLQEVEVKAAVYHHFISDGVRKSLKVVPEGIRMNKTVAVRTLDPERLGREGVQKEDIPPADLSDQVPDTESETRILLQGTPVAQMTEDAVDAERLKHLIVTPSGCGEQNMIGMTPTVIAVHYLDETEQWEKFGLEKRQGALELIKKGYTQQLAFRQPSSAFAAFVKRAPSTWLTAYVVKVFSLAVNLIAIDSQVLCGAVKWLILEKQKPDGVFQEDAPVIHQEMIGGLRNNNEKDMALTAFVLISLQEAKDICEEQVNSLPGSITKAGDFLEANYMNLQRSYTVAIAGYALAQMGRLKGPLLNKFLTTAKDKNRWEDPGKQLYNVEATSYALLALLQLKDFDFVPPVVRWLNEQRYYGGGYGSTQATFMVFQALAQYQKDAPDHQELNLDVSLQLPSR
Sequence of iC3b (P01024 1321-1663 limits assumed): as the sequence (P01024 1321-1663 limits assumed) above
Source text: as §1

Factor Bb = Factor Bb (Homo sapiens, UniProt P00751); assay: Binding profile: binding to Factor Bb; conditions: relative to the binding of the negative control mIgG2 antibody
Sequence of Factor Bb (P00751 260-764 limits assumed): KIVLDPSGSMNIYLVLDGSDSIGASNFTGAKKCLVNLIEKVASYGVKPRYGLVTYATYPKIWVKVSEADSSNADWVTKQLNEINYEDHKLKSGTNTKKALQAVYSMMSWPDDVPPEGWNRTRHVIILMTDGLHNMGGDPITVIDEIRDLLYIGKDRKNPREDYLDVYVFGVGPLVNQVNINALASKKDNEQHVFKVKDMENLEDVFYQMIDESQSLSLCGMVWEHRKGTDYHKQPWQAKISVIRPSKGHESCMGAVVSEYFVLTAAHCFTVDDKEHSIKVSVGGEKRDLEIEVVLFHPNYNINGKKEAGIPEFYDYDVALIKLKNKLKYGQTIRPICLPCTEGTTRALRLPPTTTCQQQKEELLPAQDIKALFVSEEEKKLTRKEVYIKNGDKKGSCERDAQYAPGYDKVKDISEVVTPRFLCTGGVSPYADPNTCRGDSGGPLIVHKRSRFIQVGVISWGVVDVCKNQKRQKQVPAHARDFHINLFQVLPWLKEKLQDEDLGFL
Source text: as §1

C3 [2] = target: T1, C3 (Homo sapiens, UniProt P01024); assay: Binding affinity by Biacore, human C3
T1 sequence (P01024 23-1663): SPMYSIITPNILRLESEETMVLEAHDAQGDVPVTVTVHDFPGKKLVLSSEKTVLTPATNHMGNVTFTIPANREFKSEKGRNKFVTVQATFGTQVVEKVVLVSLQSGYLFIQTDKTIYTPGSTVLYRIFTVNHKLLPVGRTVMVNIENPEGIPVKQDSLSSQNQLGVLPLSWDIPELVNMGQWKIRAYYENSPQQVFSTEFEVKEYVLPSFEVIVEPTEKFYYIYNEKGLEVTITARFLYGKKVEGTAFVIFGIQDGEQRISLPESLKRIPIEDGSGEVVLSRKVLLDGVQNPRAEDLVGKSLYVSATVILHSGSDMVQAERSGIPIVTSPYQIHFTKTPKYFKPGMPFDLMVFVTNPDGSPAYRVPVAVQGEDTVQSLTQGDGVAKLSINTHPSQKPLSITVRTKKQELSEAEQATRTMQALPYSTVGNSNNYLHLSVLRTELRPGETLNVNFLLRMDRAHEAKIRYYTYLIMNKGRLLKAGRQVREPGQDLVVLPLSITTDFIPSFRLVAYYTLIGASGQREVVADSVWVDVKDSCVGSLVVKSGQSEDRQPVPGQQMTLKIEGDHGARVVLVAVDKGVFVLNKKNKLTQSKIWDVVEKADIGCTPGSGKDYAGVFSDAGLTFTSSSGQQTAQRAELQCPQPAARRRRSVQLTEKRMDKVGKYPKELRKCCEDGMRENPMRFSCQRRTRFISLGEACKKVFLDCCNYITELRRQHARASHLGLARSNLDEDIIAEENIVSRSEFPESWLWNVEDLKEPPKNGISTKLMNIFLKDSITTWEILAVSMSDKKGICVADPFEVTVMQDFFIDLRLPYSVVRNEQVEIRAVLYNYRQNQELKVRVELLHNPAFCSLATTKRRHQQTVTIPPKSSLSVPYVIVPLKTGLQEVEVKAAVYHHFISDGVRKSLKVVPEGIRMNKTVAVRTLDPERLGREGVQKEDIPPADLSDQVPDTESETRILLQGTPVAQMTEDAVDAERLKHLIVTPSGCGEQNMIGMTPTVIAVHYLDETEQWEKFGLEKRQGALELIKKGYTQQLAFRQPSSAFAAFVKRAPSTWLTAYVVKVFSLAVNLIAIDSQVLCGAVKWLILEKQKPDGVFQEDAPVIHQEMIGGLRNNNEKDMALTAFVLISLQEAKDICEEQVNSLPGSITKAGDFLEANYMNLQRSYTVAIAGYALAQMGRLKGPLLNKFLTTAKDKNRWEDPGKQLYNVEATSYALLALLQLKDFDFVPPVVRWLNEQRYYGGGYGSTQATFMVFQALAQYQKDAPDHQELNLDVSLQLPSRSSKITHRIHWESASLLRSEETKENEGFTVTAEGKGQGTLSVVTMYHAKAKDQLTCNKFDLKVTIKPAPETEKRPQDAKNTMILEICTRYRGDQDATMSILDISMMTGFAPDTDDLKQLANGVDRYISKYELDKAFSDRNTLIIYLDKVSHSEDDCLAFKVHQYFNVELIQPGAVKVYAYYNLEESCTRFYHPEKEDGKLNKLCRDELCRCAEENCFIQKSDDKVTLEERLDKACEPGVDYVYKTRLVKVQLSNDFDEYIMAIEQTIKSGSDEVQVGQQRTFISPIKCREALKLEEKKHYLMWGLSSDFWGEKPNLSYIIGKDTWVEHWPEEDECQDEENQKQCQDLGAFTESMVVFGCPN
Procedure: The binding affinities of exemplary anti-C3 antibodies to human C3 and cyno C3 were measured using a Biacore system (GE Healthcare LifeSciences). Briefly, anti-Fc antibody (Sigma-Aldrich) was immobilized on all four flow cells of a CM5 chip using amine coupling reagents (GE Healthcare LifeSciences). Antibodies were captured on flow cells 2, 3, and 4 using flow cell 1 as a reference. Concentrations ranging from 0.62-40 nM of human C3 or cyno C3 were injected at a flow rate of 50 μL/min at 37° C. Kinetic data were collected over time and fit using the simultaneous global fit equation to yield affinity constants (KD values) for each antibody.
More recently, a number of compstatin analogs and derivatives have been generated and studied. […] A Biacore system was used to assess the binding affinities of the different molecules to human C3. […] Evaluation of COMP or COMP-PEG binding to human C3 was carried out as follows. Human C3 was immobilized on flow cell 2 of a CM5 chip using amine-coupling reagents (GE Healthcare LifeSciences) and flow cell 1 (immobilized with a similar amount of human IgG) was used as a reference. […] Similar experiments were set up with COMP-PEG (concentration range of 25-400 nM) for evaluation at 37° C. COMP-PEG binding to human C3 was also evaluated at 25° C. with modifications. […]

[3] = Elevated pH stress test, deamidation at N55 of heavy chain CDR2; type: physicochemical
C3 [4] = target: T1, C3; assay: Binding profile: binding to C3; conditions: summary in words of Table 13
Source text: as §1

C3b = C3b (Homo sapiens, UniProt P01024); assay: Binding profile: binding to C3b; conditions: relative to the binding of the negative control mIgG2 antibody
Sequence of C3b (P01024 23-667 limits assumed): as the sequence (P01024 23-667 limits assumed) above
Sequence of C3b (P01024 749-1663 limits assumed): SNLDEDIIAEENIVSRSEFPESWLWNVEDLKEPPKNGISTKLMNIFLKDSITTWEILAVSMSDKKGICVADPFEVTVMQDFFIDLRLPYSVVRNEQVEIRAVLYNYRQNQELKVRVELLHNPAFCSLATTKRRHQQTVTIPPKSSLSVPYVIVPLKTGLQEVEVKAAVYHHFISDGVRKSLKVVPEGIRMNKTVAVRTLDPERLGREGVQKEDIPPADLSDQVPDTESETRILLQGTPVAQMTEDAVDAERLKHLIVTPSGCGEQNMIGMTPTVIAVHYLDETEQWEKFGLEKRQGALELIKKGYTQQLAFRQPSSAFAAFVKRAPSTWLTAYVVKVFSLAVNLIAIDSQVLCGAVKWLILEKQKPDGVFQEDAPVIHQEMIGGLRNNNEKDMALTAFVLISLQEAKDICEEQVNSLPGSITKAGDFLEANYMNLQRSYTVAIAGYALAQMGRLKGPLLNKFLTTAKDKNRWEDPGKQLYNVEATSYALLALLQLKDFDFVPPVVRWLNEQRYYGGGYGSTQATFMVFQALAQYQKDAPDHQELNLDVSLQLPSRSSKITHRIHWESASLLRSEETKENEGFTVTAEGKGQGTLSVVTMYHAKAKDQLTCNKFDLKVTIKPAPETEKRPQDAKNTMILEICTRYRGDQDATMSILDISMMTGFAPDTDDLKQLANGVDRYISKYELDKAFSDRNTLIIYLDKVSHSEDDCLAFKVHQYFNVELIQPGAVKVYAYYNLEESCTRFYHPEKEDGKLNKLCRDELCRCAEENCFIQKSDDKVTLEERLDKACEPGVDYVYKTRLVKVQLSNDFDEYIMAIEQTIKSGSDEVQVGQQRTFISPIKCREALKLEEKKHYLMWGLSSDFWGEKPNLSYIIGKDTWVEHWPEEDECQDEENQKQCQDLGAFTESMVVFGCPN
Source text: as §1

Molecule	binding to C3c (C3c)	binding to iC3b (iC3b)	binding to Factor Bb (Factor Bb)	other results
Hz38G10 dsscFv: VL-linker-VH disulfide-linked scFv of Hz38G10, SEQ ID NO:113 (protein) scFv: MDIQMTQSPSSLSASVGDRVTITCKASENVDTYVSWYQQKPGKAPKLLIYGASNRYTGVPSRFSGSGSGTDFTFTISSLQPEDIATYHCGQSHSYPLTFGCGTKLEIKGGGGSGGGGSGGGGSQVQLVQSGAEVKKPGASVKVSCKASGYTFTDFYMDWVRQAPGQCLEWMGYIYPHNGGTTYNQQFTGRVTITVDKSASTAYMELSSLRSEDTAVYYCARRGGFDFDYWGQGTLVTVSS	–	–	–	protein concentration reached with no visible aggregation [1]: 229 mg/mL
63A3: mouse anti-C3 monoclonal antibody; VH SEQ ID NO:107, VL SEQ ID NO:108 (antibody, V domains shown) VH: DVQLQESGPGLVKPSQSLSLTCSVTGYSITSGYYWNWIRQFPGNKLEWMGYIRYDGSNNYNPSLKNRISITRDTSKNQVFLKLNSVTPEDTATYYCARHYGYDGGAFDFWGQGTTLTVSS VL: DIQMTQSPASLSASVGETVTITCRTSENIYNYLVWYQQKQGKSPQLLVYNAKTLEEGVPSRFSGSGSGTQFSLKVNSLQPEDFGSYYCQHHYGTPFTFGSGTKLEIK	0.55	0.72	0.00	–
3D8: mouse anti-C3 monoclonal antibody; VH SEQ ID NO:91, VL SEQ ID NO:92 (antibody, V domains shown) VH: EIQLQQSGAELVKPGASVKISCKASGYSFTGYNMNWVKQSHGKSLEWIGNINPYYGSTNYNQKFKGKATLTVDKSSTTAYMQLDSLTSEDSAVYYCARGYYGGNYPFAYWGQGTLVTVSA VL: DIQMTQSPASLSASVGETVTITCRASENIYSYLAWYQQKQGKSPQLLVYNAKTLAEGVPSRFSGSGSGTQFSLKINSLQPEDFGSYYCQHYYGTPYTFGGGSKVEIK	0.17	0.29	–	–
3G8: mouse anti-C3 monoclonal antibody; VH SEQ ID NO:93, VL SEQ ID NO:94 (antibody, V domains shown) VH: EIQLQQSGAELVKPGASVKISCMASGYSFTGYNMNWVKQSHGKGLEWIGNINPYYDSTSYNQKFKGKATLTVDKSSSTAYMQLNSLTSEDSAVYYCARENYDFVGFAYWGQGTLVTVSA VL: QIVLSQSPAILSASPGEKVTMTCRASSSVSYMHWFQQKPGSSPKPWIYVTSNLASGVPPRFSGSGSGTSYSLTISRVEAEDAATYYCQQWSTNPLTFGAGTKLELK	0.22	0.25	–	–
62F2: mouse anti-C3 monoclonal antibody; VH SEQ ID NO:105, VL SEQ ID NO:106 (antibody, V domains shown) VH: DVQLQESGPDLVKPSQSLSLTCTVTGYSITSGYSLHWIRQFPGNKLEWMGYIHYSGSTNYNPSLKSRISITRDTSKNQFFLKLNSVTSEDTATYHCARAWDYLDYWGQGTTLTVSS VL: DIQMTQSPASLSASVGETVTITCRASENIYSQLAWYQQKQGKSPQLLVYDAKTLAEGVPSRFSGSGSDTQFSLKIISLQPEDFGRYYCHHHFGILYTFGGGTKLEMK	0.43	0.49	0.00	–
28C3: mouse anti-C3 monoclonal antibody; VH SEQ ID NO:99, VL SEQ ID NO:100 (antibody, V domains shown) VH: QVQLQQSGPELVKPGASVKISCKASGYAFNSCWMNWVKQRPGKGLEWIGRIYPGDGDTNYNGKFKGKATLTADKSSTTAYMQLSSLTSEDSAVYFCAREGRNYGYEDYWGQGTTLTVSS VL: DIVLTQSPASLAVSLGQRATISCKASQSVDYDGDSYMNWYQQKPGQPPKLLIYAASDLESGIPARFSGSGSGTDFTLNIHPVEEEDAATYYCQQANEDPRTFGGGTKLEIK	0.28	–	0.00	–
Hz38G10(N55D): Hz38G10 variant with N55D mutation in heavy chain CDR2, mimics a fully deamidated molecule (antibody, V domains shown) VH: QVQLVQSGAEVKKPGASVKVSCKASGYTFTDFYMDWVRQAPGQRLEWMGYIYPHDGGTTYNQQFTGRVTITVDKSASTAYMELSSLRSEDTAVYYCARRGGFDFDYWGQGTLVTVSS VL: DIQMTQSPSSLSASVGDRVTITCKASENVDTYVSWYQQKPGKAPKLLIYGASNRYTGVPSRFSGSGSGTDFTFTISSLQPEDIATYHCGQSHSYPLTFGQGTKLEIK	–	–	–	binding to human C3 as compared to Hz38G10 (C3 [2]): reduced binding
Hz38G10 (G56A): Hz38G10 variant with G56A mutation in heavy chain CDR2; VH SEQ ID NO:21, VL SEQ ID NO:25 (antibody, V domains shown) VH: QVQLVQSGAEVKKPGASVKVSCKASGYTFTDFYMDWVRQAPGQRLEWMGYIYPHNAGTTYNQQFTGRVTITVDKSASTAYMELSSLRSEDTAVYYCARRGGFDFDYWGQGTLVTVSS VL: DIQMTQSPSSLSASVGDRVTITCKASENVDTYVSWYQQKPGKAPKLLIYGASNRYTGVPSRFSGSGSGTDFTFTISSLQPEDIATYHCGQSHSYPLTFGQGTKLEIK	–	–	–	deamidation at the asparagine N55, Day 0 ([3]; pH 8.5, Day 0): 0.66%; deamidation at the asparagine N55, Day 7 ([3]; pH 8.5, Day 7): 1.0%
38F5: mouse anti-C3 monoclonal antibody; VH SEQ ID NO:101, VL SEQ ID NO:102 (antibody, V domains shown) VH: EVMLVESGGALVKPGGSLKLSCTASGFTFSNYAMSWVRQTPEKRLEWVAQTISSGGRYTYYPDSVKGRFTISRDNARNTLYLQMSSLRSEDTAMYYCVRRYYGNSYWYFDVWGAGTTVTVSS VL: DIVMTQSPSSLSVSAGEKVTMNCKSSQSLLNSGNQKHYLTWYQQKPGQPPKLLIYGASTRGSGVPDRFTGSGSGTDFTLTISSVQAEDLAVYYCQNDHSYPYTFGGGTKLEIK	0.45	0.45	–	–
38G10: mouse anti-C3 monoclonal antibody; VH SEQ ID NO:18, VL SEQ ID NO:19 (antibody, V domains shown) VH: EVQLQQSGPELVKPGDSVKMSCKASGYTFTDFYMDWVKQSHGKSLEWIGYIYPHNGGTTYNQNFTGKATLTVDKSSNTAYMELHSLTSEDSAVYYCARRGGFDFDYWGQGTTLTVSS VL: NIVMTQSPKSMSLSVGERVTLRCKASENVDTYVSWYQQKPEQSPKLLIYGASNRYTGVPDRFTGSGSATEFTLTISSVQAEDLVGYHCGQSHSYPLTFGAGTKLELK	0.13	0.06	–	C3 binding profile (C3 versus fragments of the complement cascade) (C3 [4]): bound preferentially to C3 with no detectable or very limited binding to any of the fragments of the complement cascade; binding to C3b (C3b): 0.06
